T1: human DLL1 (human, UniProt O00548 18-545, limits assumed)
T1 construct: also called hDLL1
T1 sequence (looked up): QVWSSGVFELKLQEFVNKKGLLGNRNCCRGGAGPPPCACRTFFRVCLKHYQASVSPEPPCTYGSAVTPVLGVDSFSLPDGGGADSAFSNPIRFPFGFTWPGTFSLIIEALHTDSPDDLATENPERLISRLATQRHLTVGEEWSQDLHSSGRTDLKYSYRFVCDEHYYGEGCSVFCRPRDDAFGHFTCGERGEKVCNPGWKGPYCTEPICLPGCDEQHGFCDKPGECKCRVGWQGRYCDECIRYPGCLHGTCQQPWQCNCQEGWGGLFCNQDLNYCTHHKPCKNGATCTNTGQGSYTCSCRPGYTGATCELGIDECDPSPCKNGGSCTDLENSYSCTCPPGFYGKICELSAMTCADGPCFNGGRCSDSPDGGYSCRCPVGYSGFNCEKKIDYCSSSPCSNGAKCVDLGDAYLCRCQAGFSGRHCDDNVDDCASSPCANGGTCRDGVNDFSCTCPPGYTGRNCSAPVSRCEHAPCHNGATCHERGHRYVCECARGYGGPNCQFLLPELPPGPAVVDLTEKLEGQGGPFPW


Assays:
mouse VEGFR2-huFc = molecular target: T2, mouse VEGFR2-huFc (mouse, UniProt P35918 20-762, limits assumed); experiment: AlphaScreen, unlabelled mVEGF164 against biotinylated mVEGF164 on mVEGFR2-hFc
T2 construct: also called mVEGFR2-hFc; mVEGFR2-Fc
T2 sequence (P35918 20-762 limits assumed): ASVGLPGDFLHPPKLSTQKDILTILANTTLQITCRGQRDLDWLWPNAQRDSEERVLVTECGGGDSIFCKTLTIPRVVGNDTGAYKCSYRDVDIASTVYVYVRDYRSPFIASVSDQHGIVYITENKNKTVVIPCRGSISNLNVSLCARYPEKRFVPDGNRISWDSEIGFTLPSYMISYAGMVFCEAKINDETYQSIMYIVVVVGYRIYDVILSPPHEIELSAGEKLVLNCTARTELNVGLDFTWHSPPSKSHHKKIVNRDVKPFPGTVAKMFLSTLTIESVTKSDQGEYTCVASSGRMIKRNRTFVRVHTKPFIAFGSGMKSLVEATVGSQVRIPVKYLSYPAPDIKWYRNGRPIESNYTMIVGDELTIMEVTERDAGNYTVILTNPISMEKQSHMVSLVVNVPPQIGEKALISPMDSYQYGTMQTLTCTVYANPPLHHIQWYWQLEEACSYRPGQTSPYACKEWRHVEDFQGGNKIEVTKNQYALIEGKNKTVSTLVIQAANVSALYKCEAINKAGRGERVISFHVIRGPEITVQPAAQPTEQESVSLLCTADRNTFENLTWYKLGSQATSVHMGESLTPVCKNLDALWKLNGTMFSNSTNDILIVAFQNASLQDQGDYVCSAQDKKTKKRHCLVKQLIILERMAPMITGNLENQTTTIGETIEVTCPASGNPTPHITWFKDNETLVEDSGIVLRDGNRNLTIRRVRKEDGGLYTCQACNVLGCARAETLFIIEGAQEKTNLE
Method: Finally, streptavidin donor beads (20 μg/ml) are added and after 1 hour of incubation fluorescence is measured on the Envision microplate reader.

recombinant human DLL4 [1] = molecular target: T3, recombinant human DLL4 (human, UniProt Q9NR61 25-522); experiment: competition AlphaScreen, biot-hDLL4/hNotch1-Fc; partial inhibitor
T3 construct: also called rhDLL4; hDLL4

recombinant human DLL4 [2] = molecular target: T3, recombinant human DLL4; experiment: binding ELISA, coated rhDLL4
Method: (§1) In order to determine cross-reactivity to mouse DII4 a binding ELISA is performed. […] Wells are blocked with a casein solution (1% in PBS). VHHs are applied as dilution series and binding is detected using a mouse anti-myc (Roche) and an anti-mouse-AP conjugate (Sigma, St Louis, Mo., USA) (FIG. 7 A-H). As reference, binding to human DII4 is measured.

recombinant human DLL4 [3] = molecular target: T3, recombinant human DLL4; experiment: Biacore off-rate, periplasmic extract
recombinant human DLL4 [4] = molecular target: T3, recombinant human DLL4; experiment: hDLL4 ELISA screen, periplasmic extract
recombinant mouse DLL4 = molecular target: T4, recombinant mouse DLL4 (mouse, UniProt Q9JI71 27-532); experiment: binding ELISA, coated rmDLL4
T4 construct: extracellular domain; also called rmDLL4; mDLL4
T4 sequence (Q9JI71 27-532): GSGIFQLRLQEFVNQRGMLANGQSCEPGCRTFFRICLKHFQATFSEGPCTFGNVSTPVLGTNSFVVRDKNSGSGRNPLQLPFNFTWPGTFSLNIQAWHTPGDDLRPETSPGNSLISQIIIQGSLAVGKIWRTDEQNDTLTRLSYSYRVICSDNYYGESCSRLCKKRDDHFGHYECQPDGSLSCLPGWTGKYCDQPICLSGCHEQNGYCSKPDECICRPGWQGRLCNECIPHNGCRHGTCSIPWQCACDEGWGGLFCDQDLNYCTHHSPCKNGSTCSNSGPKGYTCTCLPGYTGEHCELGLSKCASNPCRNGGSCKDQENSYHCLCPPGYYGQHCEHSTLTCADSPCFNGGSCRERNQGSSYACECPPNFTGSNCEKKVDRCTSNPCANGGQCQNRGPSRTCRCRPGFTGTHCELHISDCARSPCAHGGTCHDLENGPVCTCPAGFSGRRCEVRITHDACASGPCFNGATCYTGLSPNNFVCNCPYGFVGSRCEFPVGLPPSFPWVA
Method: as §1

human Jagged-1 = molecular target: T5, human Jagged-1 (human, UniProt P78504 34-1067, limits assumed); experiment: ELISA, coated human Jagged-1
T5 construct: also called hJagged-1; hJAG1
Method: (§2) Absence of binding to homologous ligands human DLL1 and human Jagged-1 is assessed via solid phase binding assay (ELISA). In brief, human DLL1 (Alexis, San Diego, Calif., USA) and human Jagged-1 (Alexis, San Diego, Calif., USA) are coated overnight at 4° C. at 1 μg/mL in a 96-well MaxiSorp plate (Nunc, Wiesbaden, Germany). Wells are blocked with a casein solution (1% in PBS). VHHs are applied as dilution series and binding is detected using a mouse anti-myc (Roche) and an anti-mouse-AP conjugate (Sigma, St. Louis, Mo., USA).

[5] = molecular target: T6, human DLL4 overexpressed on cells (human, UniProt Q9NR61 27-685); experiment: competitive FMAT, hNotch1-Fc on CHO-hDLL4
T6 construct: full length human DLL4 on CHO or HEK293 cells; also called CHO-hDLL4; CHO-hDII4

human DLL1 = molecular target: T1, human DLL1; experiment: ELISA, coated human DLL1
Method: as §2

IC50 (mouse VEGFR2-huFc) [nM]	IC50 (recombinant human DLL4 [1]) [nM]	EC50 (recombinant human DLL4 [2]) [nM]	koff (recombinant human DLL4 [3]) [s⁻¹]	% inh (recombinant human DLL4 [4]) [%]	EC50 (recombinant mouse DLL4) [nM]	binding result (human Jagged-1)	IC50 [5] [nM]	binding result (human DLL1)	Binder
0.05	–	–	–	–	–	–	–	–	recombinant mouse VEGF164 (ligand, UniProt Q00731-2 27-190, looked up, biotinylated as the labelled ligand of the mVEGF164/mVEGFR2 AlphaScreen, also called mVEGF164; rmVEGF164) APTTEGEQKSHEVIKFMDVYQRSYCRPIETLVDIFQEYPDEIEYIFKPSCVPLMRCAGCCNDEALECVPTSESNITMQIMRIKPHQSQHIGEMSFLQHSRCECRPKKDRTKPENHCEPCSERRKHLFVQDPQTCKCSCKNTDSRCKARQLELNERTCRCDKPRR
–	0.05	0.9	0.0011	98	0.8	no binding	33	no binding	DLLBII19F04 (VHH) VHH: EVQLVESGGGLVQAEGSLRLSCAASGSTFSTYAMAWYRQAPGKQRELVAGISFDGSTHYAESVKGRFTISRDDAKNTVSLQMNSLKPEDAAVYYCYSVHPSTGFGSWGQGTQVTVSS

Reference: US20140120095A1 (Boehringer Ingelheim, published 2014)
